Measurements taken from PMC10195141 (Acta Biochimica et Biophysica Sinica, 2023).
Values after ≈ are worked out from the molar mass of the structure shown. One block for each compound: values may come before it.

Columns and labels:
[1] = target: Macaca fascicularis galectin-10 (Macaca fascicularis); assay: SEC
M. mulatta Gal-10 = target: T1, M. mulatta Gal-10 (Macaca mulatta, UniProt A0AA82WNZ0); assay: inhibition of hemagglutination of chicken erythrocytes; type: cell-based; settings: 10 mM Tris-HCl, 150 mM NaCl, pH 7.5, on ice, 60 min; carbohydrate binding site
T1 sequence (A0AA82WNZ0 4-142): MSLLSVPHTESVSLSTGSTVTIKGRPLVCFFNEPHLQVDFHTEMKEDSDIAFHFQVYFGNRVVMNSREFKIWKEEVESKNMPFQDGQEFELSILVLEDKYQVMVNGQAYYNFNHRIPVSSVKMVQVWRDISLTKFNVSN

[2] = target: Macaca mulatta galectin-10 (Macaca mulatta); assay: SEC

stoichiometry N [1]: 2
Compound: Macaca fascicularis galectin-10 (natural protein)

MIC (M. mulatta Gal-10): 6.25 mM (≈ 2140 µg/mL)
Compound: OC[C@H]1O[C@@H](O[C@H]2[C@H](O)[C@@H](O)C(O)O[C@@H]2CO)[C@H](O)[C@@H](O)[C@H]1O (stereo partly drawn) [lactose]

stoichiometry N [2]: 2
Compound: Macaca mulatta galectin-10 (natural protein)
